Experimental findings from paper PMC4485828 (Oncoimmunology, 2015) are described below.

Data set [1] deals with the molecule itself. Briefly: SEC. (In general: Size exclusion chromatography separates by hydrodynamic size, large species first.)
Data set [2] is described as follows: SEC.

B1: GD2xCD3-HDD bispecific antibody dimer (GD2xCD3 tsc-BsAb with the HNF1α dimerization domain at the C-terminus) (bispecific antibody)
chain: QVQLQQSGPELVKPGASVKISCKTSGYKFTEYTMHWVKQSHGKCLEWIGGINPNNGGTNYNQKFKGKATLTVDKSSSTAYMELRSLTSEDSAVYYCARDTTVPYAYWGQGTTVTVSSGGGGSGGGGSGGGGSDIELTQSPAIMSASPGEKVTMTCSASSSISYMHWYQQKPGTSPKRWIYDTSKLASSVPARFSGSGSGTSYSLTISSMEAEDAATYYCHQRSSYPLTFGCGTKLEIKRASTKGPGGGGSGGGGSGGGGSQVQLVQSGGGVVQPGRSLRLSCKASGYTFTRYTMHWVRQAPGKGLEWIGYINPSRGYTNYNQKFKDRFTISRDNSKNTAFLQMDSLRPEDTGVYFCARYYDDHYCLDYWGQGTPVTVSSGGGGSGGGGSGGGGSDIQMTQSPSSLSASVGDRVTITCSASSSVSYMNWYQQTPGKAPKRWIYDTSKLASGVPSRFSGSGSGTDYTFTISSLQPEDIATYYCQQWSSNPFTFGQGTKLQITRTPLGDTTHTSGMVSKLSQLQTELLAALLESGLSKEALIQALGEGSGGAP
One may read the stoichiometry N as the number of molecules, sites or subunits per partner or assembly. Turning to B1, the “stoichiometry N” value in data set [1] was 2. Moreover, the “percent dimeric (purity by HPLC-SEC)” value in data set [2] came to 97%.
